According to the RNAGym collection of RNA variant scans (doi:10.1021/acssynbio.7b00057):

B1: Pistol ribozyme (parent)
chain: GGGUCGUUGUUCCAUAAUCGCGUGGAUAUGGCACGCAAGUUUCUACCGGGCACCGUAAAUGUCCGACUGGAGCCGUUCGGGCGGCUAUAAACAGACCUCAGGCCCGAAGCGUGGCGGCACCUGCCGCCGGUGGUAAAAAAGAUCGGAAGAGCACACGUCU

Variants of: B1
Test: aptazyme ON/OFF ratio, guanine; higher = stronger switching; co-transcriptional cleavage with and without guanine

Variant | aptazyme ON/OFF ratio
U7G U8A G9U U11A C12G | 1.14
U7G U8A G9U U10G U11G C12U C13G | 1.06
U7G U8A G9U U10G U11G C12U C13A | 1.04
U7G U8A G9U U10G U11G C12U C13U | 1.12
U7G U8A U10C C12G C13U | 1.31
U7G U8A U10C C12G C13A | 1.39
U7G U8A U10C C12G C13G | 1.17
U7G U8A U10C U11C | 1.11
U7G U8A U10C U11G | 2.09
U7G U8A U10C U11A | 2.3
U7G U8A G9U U10G U11A C12G | 1.09
U7G U8A G9U U10G U11A C12U | 1.04
U7G U8A G9U U10G U11A C12A | 1.09
U7G U8A U10C U11A C12A C13A | 1.49
U7G U8A U10C U11A C12A C13G | 1.23
U7G U8A U10C U11A C12A C13U | 1.39
U7G U8A U10A U11A C12A | 1.08
U7G U8A U10A U11A C12G | 1.14
U7G U8A U10A U11A C12U | 1.12
U7G U8A G9U U10G C12G C13U | 1.12
U7G U8A G9U U10G C12G C13G | 1.07
U7G U8A G9U U10G C12G C13A | 1.05
U7G U8A U10C C13U | 1.49
U7G U8A U10C C13G | 1.09

Variant | aptazyme ON/OFF ratio
U7G U8A U10C C13A | 1.23
U7G U8A G9U U10C U11A C12G C13G | 1.07
U7G U8A G9U U10C U11A C12G C13A | 1.1
U7G U8A G9U U10C U11A C12G C13U | 1.09
U7G U8A G9U U11C C12A C13G | 1.07
U7G U8A G9U U11C C12A C13U | 1.16
U7G U8A G9U U11C C12A C13A | 1.1
U7G U8A U10A U11C C12A C13U | 1.17
U7G U8A U10A U11C C12A C13A | 1.26
U7G U8A U10A U11C C12A C13G | 1.25
U7G U8A G9U U11G C12A C13U | 1.09
U7G U8A G9U U11G C12A C13A | 1.09
U7G U8A G9U U11G C12A C13G | 1.05
U7G U8A G9U U11C C12G C13G | 1.04
U7G U8A G9U U11C C12G C13A | 1.09
U7G U8A G9U U11C C12G C13U | 1.08
U7G U8A G9U U11G C12G | 1.12
U7G U8A G9U U11G C12A | 1.07
U7G U8A G9U U11G C12U | 1.23
U7G U8A G9U U10G U11C C12A C13G | 1.05
U7G U8A G9U U10G U11C C12A C13U | 1.11
U7G U8A G9U U10G U11C C12A C13A | 1.05
U7G U8A U10G C12U C13A | 1.6
U7G U8A U10G C12U C13G | 1.54

Variant | aptazyme ON/OFF ratio
U7G U8A G9U U10C C12G | 1.52
U7G U8A G9U U10C C12U | 1.32
U7G U8A G9U U10C C12A | 1.2
U7G U8A G9U U10G U11C C13U | 1.06
U7G U8A G9U U10G U11C C13A | 1.06
U7G U8A G9U U10G U11C C13G | 1.04
U7G U8A U10G C12A C13U | 1.15
U7G U8A U10G C12A C13A | 1.58
U7G U8A U10G C12A C13G | 1.11
U7G U8A U10A U11G C12U | 1.14
U7G U8A U10A U11G C12G | 1.33
U7G U8A U10A U11G C12A | 1.11
U7G U8A G9U U10G C12U C13U | 1.13
U7G U8A G9U U10G C12U C13G | 1.03
U7G U8A G9U U10G C12U C13A | 1.05
U7G U8A U10A U11C C12G | 1.26
U7G U8A U10A U11C C12U | 1.05
U7G U8A U10A U11C C12A | 1.31
U7G U8A U10A C12A C13G | 1.3
U7G U8A U10A C12A C13A | 1.33
U7G U8A U10A C12A C13U | 1.08
U7G U8A G9U U11G C13A | 1.07
U7G U8A G9U U11G C13G | 1.02
U7G U8A G9U U11G C13U | 1.07

Variant | aptazyme ON/OFF ratio
U7G U8A G9U U10G C13A | 1.35
U7G U8A G9U U10G C13G | 1.19
U7G U8A G9U U10G C13U | 1.21
U7G U8A U10A U11A C12U C13U | 1.31
U7G U8A U10A U11A C12U C13G | 1.29
U7G U8A U10A U11A C12U C13A | 1.22
U7G U8A G9U U10A U11G C13U | 1.09
U7G U8A G9U U10A U11G C13G | 1.03
U7G U8A G9U U10A U11G C13A | 1.09
U7G U8A G9U U10G U11G C12A C13G | 1.09
U7G U8A G9U U10G U11G C12A C13A | 1.07
U7G U8A G9U U10G U11G C12A C13U | 1.25
U7G U8A G9U U10G U11A C12U C13A | 1.11
U7G U8A G9U U10G U11A C12U C13G | 1.03
U7G U8A G9U U10G U11A C12U C13U | 1.02
U7G U8A G9U U10C C13G | 1.06
U7G U8A G9U U10C C13U | 1.38
U7G U8A G9U U10C C13A | 1.11
U7G U8A G9U U10G | 1.51
U7G U8A G9U U10C | 3.13
U7G U8A G9U U10C U11C C12U C13G | 1.06
U7G U8A G9U U10C U11C C12U C13A | 1.03
U7G U8A G9U U10C U11C C12U C13U | 1.06
U7G U8A G9U U10G U11C C12G C13A | 1.09

Variant | aptazyme ON/OFF ratio
U7G U8A G9U U10G U11C C12G C13G | 1.03
U7G U8A G9U U10G U11C C12G C13U | 1.21
U7G U8A U10C U11G C12A C13A | 1.19
U7G U8A U10C U11G C12A C13U | 1.37
U7G U8A U10C U11G C12A C13G | 1.19
U7G U8A G9U U10C U11G C12A | 1.06
U7G U8A G9U U10C U11G C12G | 1.1
U7G U8A G9U U10C U11G C12U | 1.35
U7G U8A G9U U11C | 1.08
U7G U8A G9U U11A | 1.39
U7G U8A G9U U11G | 1.17
U7G U8A G9U U10A U11G C12A C13G | 1.06
U7G U8A G9U U10A U11G C12A C13A | 1.09
U7G U8A G9U U10A U11G C12A C13U | 1.09
U7G U8A U10C U11C C12U C13G | 1.25
U7G U8A U10C U11C C12U C13A | 1.14
U7G U8A U10C U11C C12U C13U | 1.13
U7G U8A U10A U11C C12U C13U | 1.19
U7G U8A U10A U11C C12U C13A | 1.18
U7G U8A U10A U11C C12U C13G | 1.23
U7G U8A G9U U10C U11G C13A | 1.1
U7G U8A G9U U10C U11G C13U | 1.09
U7G U8A G9U U10C U11G C13G | 1.09
U7G U8A G9U U11A C12G C13U | 1.04

Variant | aptazyme ON/OFF ratio
U7G U8A G9U U11A C12G C13G | 1.06
U7G U8A G9U U11A C12G C13A | 1.06
U7G U8A U10C U11G C13A | 1.34
U7G U8A U10C U11G C13G | 1.26
U7G U8A U10C U11G C13U | 1.41
U7G U8A G9U U10C C12U C13U | 1.03
U7G U8A G9U U10C C12U C13A | 1.12
U7G U8A G9U U10C C12U C13G | 1.04
U7G U8A G9U U10G U11C | 1.04
U7G U8A G9U U10G U11A | 1.05
U7G U8A G9U U10G U11G | 1.11
U7G U8A G9U U10A U11G C12U C13A | 1.07
U7G U8A G9U U10A U11G C12U C13G | 1.08
U7G U8A G9U U10A U11G C12U C13U | 1.02
U7G U8A U10C U11A C12U C13A | 1.3
U7G U8A U10C U11A C12U C13U | 1.34
U7G U8A U10C U11A C12U C13G | 1.19
U7G U8A G9U U11A C13G | 1.02
U7G U8A G9U U11A C13U | 1.11
U7G U8A G9U U11A C13A | 1.09
U7G U8A G9U U10A U11G | 1.09
U7G U8A G9U U10G U11A C13U | 1.06
U7G U8A G9U U10G U11A C13A | 1.06
U7G U8A G9U U10G U11A C13G | 1.06

Variant | aptazyme ON/OFF ratio
U7G U8A G9U U10G U11A C12G C13A | 1.03
U7G U8A G9U U10G U11A C12G C13U | 1.12
U7G U8A G9U U10G U11A C12G C13G | 1.05
U7G U8A G9U U10A U11C C13G | 1.02
U7G U8A G9U U10A U11C C13U | 1.02
U7G U8A G9U U10C U11G C12G C13G | 1.05
U7G U8A G9U U10C U11G C12G C13U | 1.02
U7G U8A G9U U10C U11G C12G C13A | 1.07
U7G U8A U10A | 1.35
U7G U8A U10G | 1.28
U7G U8A U10C | 2.69
U7G U8A G9U U10C U11G C12A C13U | 1.11
U7G U8A G9U U10C U11G C12A C13A | 1.08
U7G U8A G9U U10C U11G C12A C13G | 1.05
U7G U8A U10G C12A | 1.03
U7G U8A U10G C12U | 1.17
U7G U8A U10G C12G | 1.13
U7G U8A G9U U10C U11C C12G C13U | 1.06
U7G U8A G9U U10C U11C C12G C13A | 1.09
U7G U8A G9U U10C U11C C12G C13G | 1.06
U7G U8A G9U U10C U11A C12A C13G | 1.06
U7G U8A G9U U10C U11A C12A C13U | 1.09
U7G U8A G9U U10C U11A C12A C13A | 1.14
